Drawing on US20230331835A1, this text covers geometric mean (fluorescence) for one substance.

For the assay, the target named is antigens on human iPSC-derived brain microvascular endothelial cells (BMECs) (human). The experiment in a line: flow cytometry of BMECs with phage, anti-M13 detection.

In turn, “phage displaying anti-botulinum neurotoxin scFv” yielded a geometric mean (fluorescence) of 3.16.
